The test concerns the target inter-alpha-inhibitor (IαI) (human) (UniProt P19827).

Sequence of inter-alpha-inhibitor (IαI) (human) (P19827 whole entry, looked up): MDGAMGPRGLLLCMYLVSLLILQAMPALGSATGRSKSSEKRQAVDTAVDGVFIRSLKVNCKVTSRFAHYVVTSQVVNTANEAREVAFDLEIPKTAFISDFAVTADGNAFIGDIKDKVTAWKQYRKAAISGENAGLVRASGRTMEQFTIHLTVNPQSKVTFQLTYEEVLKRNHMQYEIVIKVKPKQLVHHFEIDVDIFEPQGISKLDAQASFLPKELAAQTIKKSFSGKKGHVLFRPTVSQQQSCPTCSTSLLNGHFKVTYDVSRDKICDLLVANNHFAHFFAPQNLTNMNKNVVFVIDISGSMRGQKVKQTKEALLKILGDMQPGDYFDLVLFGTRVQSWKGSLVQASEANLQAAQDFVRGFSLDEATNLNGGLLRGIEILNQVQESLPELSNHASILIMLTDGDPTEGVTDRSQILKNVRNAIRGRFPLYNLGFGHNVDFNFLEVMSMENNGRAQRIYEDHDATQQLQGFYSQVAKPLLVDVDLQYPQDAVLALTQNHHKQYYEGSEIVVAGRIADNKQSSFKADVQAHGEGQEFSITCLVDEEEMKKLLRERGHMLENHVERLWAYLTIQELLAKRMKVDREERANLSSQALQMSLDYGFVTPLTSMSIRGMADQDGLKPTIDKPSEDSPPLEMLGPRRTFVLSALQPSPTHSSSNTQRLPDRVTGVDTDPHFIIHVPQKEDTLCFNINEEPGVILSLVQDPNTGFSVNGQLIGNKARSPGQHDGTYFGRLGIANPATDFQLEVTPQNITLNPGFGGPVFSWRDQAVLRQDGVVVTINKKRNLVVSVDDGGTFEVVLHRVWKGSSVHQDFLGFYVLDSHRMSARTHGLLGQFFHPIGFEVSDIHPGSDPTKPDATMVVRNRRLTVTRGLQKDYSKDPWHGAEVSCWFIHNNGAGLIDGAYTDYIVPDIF

In the case of “Full-length human TSG-6 (rhTSG-6) E183S mutant (from UniProt P98066 18-277) (natural protein)”, the amount of HC·TSG-6 product with added calcium ions (SDS-PAGE band intensity) is 5 % of WT.
